Test results from US11078259B2, “Methods and compositions for promoting thermogenic potential” (Joslin Diabetes Center, Inc., priority 2015, dated 2021).

Tests used:
[1] = system: hWAT-SVF and hBAT-SVF progenitors; experiment: BMP pre-treatment of progenitors, Q-RT-PCR for UCP1 and PPARγ in mature adipocytes; format: cell-based, human
[2] = system: hWAT-SVF and hBAT-SVF progenitors; experiment: OCR (Seahorse) in adipocytes from BMP7 pre-treated progenitors; format: cell-based, human; conditions: hWAT-SVF from both subjects and hBAT-SVF from Subject 2; 3.3 nM BMP7 pre-exposure 6 days
Protocol: FIG. 6B depicts OCR assayed using the Seahorse extracellular flux analyzer in differentiated hWA and hBA from Sub1 and Sub2 that were pre-treated with 3.3 nM BMP7 or vehicle (Veh) for 6 days and then differentiation into mature adipocytes. Equal numbers of progenitors were plated and differentiated. Quantification of OCR in the absence (Basal Res.) and presence of oligomycin (Proton Leak) or FCCP (Max. Res.) are shown. Data are presented as mean±s.e.m. (n=10; two-tailed Student's t-test; *P<0.05, **P<0.01, ***P<0.001). A representative experiment from a total of two independent studies is shown. Data are represented in the same order as appeared in the legend. FIGS. 6C and 6D depict measurement of glucose uptake using ^3H 2-Deoxy-Glucose in differentiated hWA and hBA from Sub1 and Sub2 that were pre-treated with 3.3 nM BMP7 or vehicle (Veh) for 6 days and then differentiation into mature adipocytes. […]
To assess mitochondrial respiration, a Seahorse Extracellular Flux Analyzer (Seahorse Bioscience Inc., North Billerica, Mass.) was used to quantify oxygen consumption rates (OCR) of differentiated human white and brown adipocytes. […] After adipogenic induction for 12 days, OCR was analyzed. […] All data were average of four-time points with 10 wells per time point by quantified in bar plots, and error bars are standard error of the mean (s.e.m.). […]

B1: BMP7: Recombinant human BMP7, an inducer of brown adipogenesis (protein, UniProt P18075 293-431, looked up)
Bone morphogenetic protein 7: STGSKQRSQNRSKTPKNQEALRMANVAENSSSDQRQACKKHELYVSFRDLGWQDWIIAPEGYAAYYCEGECAFPLNSYMNATNHAIVQTLVHFINPETVPKPCCAPTQLNAISVLYFDDSSNVILKKYRNMVVRACGCH
UCP1 expression in mature adipocytes ([1]; hWAT-SVF from both subjects and hBAT-SVF from Subject 2, 3.3 nM BMP7 pre-exposure 6 days): increased | PPARγ expression ([1]; mature brown adipocytes from Subject 2 only, BMP7 pretreatment): augmented | mitochondrial activity in mature adipocytes [2]: enhanced
